Reference: publication PMC179894

How the values were obtained:
Assay in all cases: enzyme inhibition kinetics
[1] = target: single-chain tissue-type plasminogen activator
[2] = target: thrombin (UniProt P00734)
[3] = target: plasmin (UniProt P00747)

Chain of wild type plasminogen activator inhibitor-1 (recombinant, baculovirus system) (P05121 24-402): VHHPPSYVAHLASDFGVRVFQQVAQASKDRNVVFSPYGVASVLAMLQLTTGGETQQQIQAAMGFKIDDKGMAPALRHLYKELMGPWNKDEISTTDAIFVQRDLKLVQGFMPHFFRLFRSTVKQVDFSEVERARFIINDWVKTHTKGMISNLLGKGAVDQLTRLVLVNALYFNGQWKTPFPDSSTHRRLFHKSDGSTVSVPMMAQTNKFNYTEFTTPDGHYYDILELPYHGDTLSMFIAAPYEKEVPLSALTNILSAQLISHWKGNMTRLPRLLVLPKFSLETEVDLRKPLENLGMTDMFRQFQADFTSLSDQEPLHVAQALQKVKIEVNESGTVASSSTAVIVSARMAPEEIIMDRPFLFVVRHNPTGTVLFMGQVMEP

Question: With “wild type plasminogen activator inhibitor-1 (recombinant, baculovirus system) (from UniProt P05121 24-402) (natural protein)” as the substance, how does the second-order rate constant of inhibition [1] read?
Answer: 2.11e+07 M⁻¹ s⁻¹

Question: And the second-order rate constant of inhibition [2]?
Answer: 720 M⁻¹ s⁻¹

Question: What about the second-order rate constant of inhibition [3] of the same substance?
Answer: 31000 M⁻¹ s⁻¹
